Assay results: patent publication US20210188989A1 (SYSTIMMUNE, published 2021)

T1: recombinant cynomolgus 4-1BB extracellular domain protein (cynomolgus, UniProt A9YYE7 24-186)
T1 construct: Analyte in the Octet assay
T1 sequence: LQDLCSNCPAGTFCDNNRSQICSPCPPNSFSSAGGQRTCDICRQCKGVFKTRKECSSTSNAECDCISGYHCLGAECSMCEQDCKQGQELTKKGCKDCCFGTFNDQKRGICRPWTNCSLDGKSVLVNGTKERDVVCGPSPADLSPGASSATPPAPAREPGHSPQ


How the values were obtained:
[1] = biological target: T1, recombinant cynomolgus 4-1BB …; experiment: Octet BLI; chimeric IgG from transfection supernatant on anti-human Fc biosensor; recombinant cynomolgus 41BB; column kdis(1/s) Cynomolgus
Text: (§1) The heavy and light chain expression plasmids generated from each well were transiently co-transfected to produce rabbit/human chimeric antibodies. Recombinant antibody supernatants were confirmed to contain antibodies specific for human and cynomolgus 4-1BB using bio-layer interferometry analysis on a ForteBio Octet Red 96 instrument. Anti-human Fc biosensors (Pall ForteBio) were used to capture antibodies in the supernatants. Association to human or cynomolgus 4-1BB was observed by real-time interferometry by placing the biosensors in wells containing recombinant human or cynomolgus 4-1BB extracellular domain protein. Dissociation was measured after transfer of the biosensors into wells containing 10× kinetics buffer (Pall ForteBio). The software provided by the manufacturer was used to analyze the interferometry data. A summary of the primary BCC screening data and the corresponding screening data for 34 recombinant chimeric rabbit/human IgG antibodies is shown in FIG. 2.

[2] = biological target: T2, recombinant human 4-1BB extracellular domain protein (human, UniProt Q07011 24-186); experiment: Octet BLI; chimeric IgG from transfection supernatant on anti-human Fc biosensor; recombinant human 41BB; column kdis(1/s) Human
T2 construct: extracellular domain; Analyte in the Octet assay; also called CD137; TNFRSF9
Text: as §1

[3] = biological target: T2, recombinant human 4-1BB extracellular …; experiment: Octet, binding off-rate kdis; the sheet names no species of 41BB, paragraph 86: 'binding to human and recombinant 4-1BB by octet assay'

koff [1] [s⁻¹] | koff [2] [s⁻¹] | koff [3] [s⁻¹] | Binder
0.0014 | 0.00063 |  | 419D9 (antibody, human IgG1, kappa, V domains shown, one of the 34 chimeric antibodies; rabbit variable regions on human IgG1 and human kappa; also called 419D9 chimeric rabbit/human IgG) VH: QSLEESGGDLVKPGASLTLTCTASGFSFSSRHYMCWVRQAPGEGLEWIACIYTGSSGTPHYASWAKGRFTISQTSSTTVTLQMTSLTAADTATYFCSSEGNLWGPGTLVTVSS VL: AQVLTQTASPVSAAVGGTVTINCQSSQSVYSNWLSWYQQKPGQPPKRLIYSASTLASGVPSRFKGSGSGTQFTLTISDLECDDAATYYCAGGYNTVTDTFAFGRGTEVEVKR
0.0075 | 0.00075 |  | 459F1 (antibody, human IgG1, kappa, V domains shown, one of the 34 chimeric antibodies; rabbit variable regions on human IgG1 and human kappa; also called 459F1 chimeric rabbit/human IgG) VH: ESLEESGGDLVKPGASLTLTCTASGIDFSRRYYMCWVRQAPGKGLEWIACMYTGSRDTPHYASWAKGRFTISQTSSTTVTLQMTSLTAADTATYFCAREGNLWGPGTLVTVSS VL: AQVLTQTASPVSAAVGGTVTINCQSSQSVYSNWFSWYQQKPGQPPKLLIYSASTLASGVPSRFKGSGSGTQFTLTISDLECDDAATYYCAGGYNTVTDTFAFGGGTEVEFKR
0.002 | 0.00094 |  | 420H6 (antibody, human IgG1, kappa, V domains shown, one of the 34 chimeric antibodies; rabbit variable regions on human IgG1 and human kappa; also called 420H6 chimeric rabbit/human IgG) VH: QQQLEESGGGLVKPGGTLTLTCKASGIDFSSSYYMCWVRQAPGEGLEWIACIYTGGSGTPHYASWAKGRFTISQTSSTTVTLQMTSLTAADTATYFCAREGSLWGQGTLVTVSS VL: AQVLTQTASPVSAAVGGTVTINCQASQSVYSNWLSWYQQKPGQPPKRLIYSASTLASGVPSRFKGSGSGTQFTLTISDLECDDAATYYCAGGYNTVIDTFAFGGGTEVEFKR
0.0041 | 0.00067 |  | 460C3 (antibody, human IgG1, kappa, V domains shown, one of the 34 chimeric antibodies; rabbit variable regions on human IgG1 and human kappa; also called 460C3 chimeric rabbit/human IgG) VH: QSLEESGGDLVKPGASLTLTCTASGIDFSRRYYMCWVRQAPGKGLEWIACIYTGSRDTPHYASWAKGRFTISQTSSTTVTLQMTSLTAADTATYFCAREGSLWGQGTLVTVSS VL: AQVLTQTPSSVSAAVGGTVSISCQSSQSVYSNWFSWYQQKPGQPPKLLIYSASTLASGVPSRFKGSGSGTQFTLTISDLECDDAATYYCAGGYNTVIDTFAFGGGTEVEFKR
0.0015 | 0.0011 |  | 418E10 (antibody, human IgG1, kappa, V domains shown, one of the 34 chimeric antibodies; rabbit variable regions on human IgG1 and human kappa; also called 418E10 chimeric rabbit/human IgG) VH: QSLEESGGRLVTPGTPLTLTCTASDFSLSTYYMSWVRQAPGKGLEWIGSIYDSGAAYYATWAKGRFTISRTSTTVDLRMTSLTAADTATYFCARDPINNAIWGQGTLVTVSS VL: ALVMTQTPSPVSAAVGGTVTINCQASQSIGSNLNWYQQKPGQPPKLLIYYVSTLASGVPSRFKGSGSGTEYTLTISGVQCDDAATYYCLGVWNYWGDDGTAFGGGTEVEVKR
0.005 | 0.0036 |  | 418E4 (antibody, human IgG1, kappa, V domains shown, one of the 34 chimeric antibodies; rabbit variable regions on human IgG1 and human kappa; also called 418E4 chimeric rabbit/human IgG) VH: QSLEESGGRLVTPGTPLTLTCTASEFSLSSYYMSWVRQAPGKGLEWIGSIYASGSAYYASWAKGRFTISRTSTTVDLKMTSLTAADTATYFCVRDPINNDIWGPGTLVTVSS VL: ALVMTQTPSPVSAAVGGTVTINCQASQSIATNLNWYQQKPGQPPKLLIYYTSSLASGVPSRFSGSGSGTEFTLTISGVQCDDAATYYCLGVWNYWGDDGTAFGGGTEVEFKR
 |  | 0.00254 | 466F6 VHv2VLv5 (antibody, human IgG1, kappa, V domains shown, one of the humanized antibodies; also called 466F6 humanized) VH: RSLVESGGGLVQPGGSLRLSCTASGFTISSYHMQWVRQAPGKGLEYIGTISSGGNVYYASSARGRFTISRPSSKNTVDLQMNSLRAEDTAVYYCARDSGYSDPMWGQGTLVTVSS VL: DVVMTQSPSSVSASVGDRVTITCQASQNIRTYLSWYQQKPGKAPKLLIYAAANLASGVPSRFSGSGSGTDFTLTISDLEPGDAATYYCQSTYLGTDYVGGAFGGGTKVEIKR
 |  | 0.000784 | 464C11 VHv1VLv1 (antibody, human IgG1, kappa, V domains shown, one of the humanized antibodies; also called 464C11 humanized) VH: EVQLVESGGGLVQPGPSLRLSCTASGFSLSHYWMTWVRQAPGKGLEYIGFINVGGDTSYASSVKGRFTISRDDSKSIAYLQMNSLKTEDTAVYYCGRGGLTFGWDLWGQGTLVTVSS VL: DIQMTQSPSTLSASVGDRVTITCQSSQSVYSNSFLSWYQQKPGKAPKLLIYSASDLASGVPSRFSGSGSGTEFTLTISSLQPDDFATYYCAGVYSDNTYVFGGGTKVEIKR
0.0016 | 0.0014 |  | 418H5 (antibody, human IgG1, kappa, V domains shown, one of the 34 chimeric antibodies; rabbit variable regions on human IgG1 and human kappa; also called 418H5 chimeric rabbit/human IgG) VH: QSLEESGGRLVTPGTPLTLTCTVSGIDLSAYHMSWVRQAPGKGLEYIGMIGSSGTIHYANWAKGRFTISKTSTTVDLKITSPTTEDTATYFCARDSYNSDYAFNLWGPGTLVTVSS VL: AQVLTQTPASVSATVGSTVTISCQSSPSVYKNNQLAWYQQKPGQPPKLLIYLASTLASGVPSRFKGSGSGTEFTLTISDLECADAATYYCAGGYSSSSDTAFGGGTEVEVKR
0.0019 | 0.0014 |  | 416G1 (antibody, human IgG1, kappa, V domains shown, one of the 34 chimeric antibodies; rabbit variable regions on human IgG1 and human kappa; also called 416G1 chimeric rabbit/human IgG) VH: QSVEESGGRLVTPGTPLTLTCTVSGFTINSYHMIWVRQAPGEGLEYIGFINDGGFTYYASWAKGRFIISRTSTTVDLKMTSLTVADTATYFCARGVDGTSYPDLWGPGTLVTVSS VL: DVVMTQTPASVSEPVGGAVTIKCQASQSIGSDLAWYQQKPGQPPKLLIYRASTLASGVSSRFKGSGSGTEFTLTISDLECADAATYYCQCIYYGSDDVIYHTFGGGTEVVVKR
0.0018 | 0.0011 |  | 472E4 (antibody, human IgG1, kappa, V domains shown, one of the 34 chimeric antibodies; rabbit variable regions on human IgG1 and human kappa; also called 472E4 chimeric rabbit/human IgG) VH: QSLEESGGRLVTPGGSLTLTCTVSGFSLNNNAISWVRQAPGKGLEWVAIIQNTGTTDYARWAKGRFTISKTSTTVDLKINSPTTEDTATYFCGRGYGFESELVIWGPGTLVTVSS VL: AAVLTQTPSSTSAAVGGTVTISCQSSQSVYNNNALAWYQKKPGQPPKLLIYLASTLASGVPSRFSGSGSGTQFTLTISDLECDDAATYYCLGVYNDDVDNGFGGGTEVVFKR
 |  | 0.000728 | 460C3 VHv1VLv1 (antibody, human IgG1, kappa, V domains shown, one of the humanized antibodies; also called 460C3 humanized) VH: EVQLLESGGGLVQPGGSLRLSCAASGIDFSRRYYMCWVRQAPGKGLEWIACIYTGSRDTPHYASSAKGRFTISRDNSKNTLYLQMNSLRAEDTAVYYCAREGSLWGQGTLVTVSS VL: DIQMTQSPSTLSASVGDRVTITCQSSQSVYSNWFSWYQQKPGKAPKLLIYSASTLASGVPSRFSGSGSGTEFTLTISSLQPDDFATYYCAGGYNTVIDTFAFGGGTKVEIKR
 |  | 0.00128 | 420H6 VHv1VLv1 (antibody, human IgG1, kappa, V domains shown, one of the humanized antibodies; also called 420H6 humanized) VH: EVQLLESGGGLVQPGGSLRLSCAASGIDFSSSYYMCWVRQAPGKGLEWIACIYTGGSGTPHYASSAKGRFTISRDNSKNTLYLQMNSLRAEDTAVYYCAREGSLWGQGTLVTVSS VL: DIQMTQSPSTLSASVGDRVTITCQASQSVYSNWLSWYQQKPGKAPKLLIYSASTLASGVPSRFSGSGSGTEFTLTISSLQPDDFATYYCAGGYNTVIDTFAFGGGTKVEIKR
 |  | 0.00131 | 459F1 VHv1VLv1 (antibody, human IgG1, kappa, V domains shown, one of the humanized antibodies; also called 459F1 humanized) VH: EVQLLESGGGLVQPGGSLRLSCAASGIDFSRRYYMCWVRQAPGKGLEWIACMYTGSRDTPHYASSAKGRFTISRDNSKNTLYLQMNSLRAEDTAVYYCAREGNLWGQGTLVTVSS VL: DIQMTQSPSTLSASVGDRVTITCQSSQSVYSNWFSWYQQKPGKAPKLLIYSASTLASGVPSRFSGSGSGTEFTLTISSLQPDDFATYYCAGGYNTVTDTFAFGGGTKVEIKR
 |  | 0.00265 | 472E4 VHv1VLv1 (antibody, human IgG1, kappa, V domains shown, one of the humanized antibodies; also called 472E4 humanized) VH: EVQLVESGGGLVQPGGSLRLSCAASGFSLNNNAISWVRQAPGKGLEWVAIIQNTGTTDYARSAKGRFTISRDNSKNTLYLQMNSLRAEDTAVYYCARGYGFESELVIWGQGTLVTVSS VL: DIQMTQSPSSLSASVGDRVTITCQSSQSVYNNNALAWYQQKPGKVPKLLIYLASTLASGVPSRFSGSGSGTDFTLTISSLQPEDVATYYCLGVYNDDVDNGFGGGTKVEIKR
